Measured values from PMC7810697, “Sarcolipin alters SERCA1a interdomain communication by impairing binding of both calcium and ATP” (Scientific Reports, 2021).
Where “and” joins values, the source holds several entries; their conditions need not be identical. Equal entries are not always repeated. Ends that are not written are not given here. * marks the point of attachment. Palmitoyl = CCCCCCCCCCCCCCCC(=O)*

Assays:
[1] = target: T1, recombinant SERCA1a (recS1a) (Oryctolagus cuniculus, UniProt P04191); assay: Kinetics of phosphorylation from [γ32P]ATP, recS1a; type: biochemical, rabbit (expressed in S. cerevisiae); conditions: for EPmax, from calcium deprived state: Fig. 4C, mean of six (pSLN), four (SLN) replicates, recS1a alone 3.09 ± 0.10; for t1/2 of phosphorylation, from calcium deprived state: EGTA 1 min then 2 µM [γ32P]ATP and calcium, six (pSLN) or four (SLN) replicates from two independent experiments, recS1a alone 6.8, p < 0.0001; for rate of phosphorylation, from calcium deprived state: recS1a, starting from calcium-deprived state, Fig. 4C,D
T1 construct: BAD (biotin acceptor domain) (C, cleaved yes); made in house; host or cells: Saccharomyces cerevisiae
T1 sequence (P04191 1-994 isoform P04191-2): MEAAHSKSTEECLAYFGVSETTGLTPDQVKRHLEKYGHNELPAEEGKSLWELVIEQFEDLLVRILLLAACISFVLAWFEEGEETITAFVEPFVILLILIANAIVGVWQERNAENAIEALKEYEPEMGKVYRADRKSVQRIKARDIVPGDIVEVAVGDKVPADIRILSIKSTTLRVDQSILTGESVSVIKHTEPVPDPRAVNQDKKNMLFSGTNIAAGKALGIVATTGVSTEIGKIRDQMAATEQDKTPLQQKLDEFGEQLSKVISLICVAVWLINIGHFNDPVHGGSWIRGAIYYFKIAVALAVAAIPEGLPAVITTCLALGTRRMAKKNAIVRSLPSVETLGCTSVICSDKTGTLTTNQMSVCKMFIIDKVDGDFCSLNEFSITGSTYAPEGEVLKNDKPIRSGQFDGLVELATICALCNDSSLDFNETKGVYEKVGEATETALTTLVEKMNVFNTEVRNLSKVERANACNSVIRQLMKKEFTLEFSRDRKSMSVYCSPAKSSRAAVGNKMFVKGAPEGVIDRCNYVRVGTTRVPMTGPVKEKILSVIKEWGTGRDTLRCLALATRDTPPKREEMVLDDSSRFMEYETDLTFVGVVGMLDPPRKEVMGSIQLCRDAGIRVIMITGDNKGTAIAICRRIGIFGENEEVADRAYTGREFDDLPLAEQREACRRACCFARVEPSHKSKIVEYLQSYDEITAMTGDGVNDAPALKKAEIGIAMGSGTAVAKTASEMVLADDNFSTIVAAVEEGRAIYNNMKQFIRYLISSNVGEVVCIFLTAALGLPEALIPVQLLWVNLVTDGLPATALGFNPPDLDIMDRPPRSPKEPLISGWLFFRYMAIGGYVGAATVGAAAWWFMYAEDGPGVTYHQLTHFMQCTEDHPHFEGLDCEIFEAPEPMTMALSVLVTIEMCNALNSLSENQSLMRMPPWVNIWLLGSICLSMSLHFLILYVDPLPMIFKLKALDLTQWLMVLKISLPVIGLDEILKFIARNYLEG
Method: (§1) Transient formation of the phosphoenzyme intermediate was measured after incubation with [γ^32P]ATP followed by acid quenching, and filtration. For most experiments, 50 µL of enzyme at 10 µg/mL in a buffer containing 50 mM Tes-Tris pH7.5, 1 mM KCl, 5 mM MgCl2, 20% glycerol (w/w) and 0.5 mg/mL DDM, supplemented or not with SLN, was stored on ice. Concentrations of EGTA and calcium are specified in figure legends in order to reach the appropriate [Ca^2+]free and therefore the desired starting state for the ATPase. For kinetics of phosphorylation, we initiate reaction by addition of 2 µM [γ^32P]ATP (5 mCi/µmole), and calcium at 100 µM when specified. Reaction was quenched by addition of 2 mL of cold quenching medium (500 mM TCA + 30 mM H3P0_4) under vigorous mixing, and immediately stored on ice for 20–30 min to improve precipitation, a period of time critical for retention of the precipitate on the filter in presence of detergent. This was followed by filtration on GS filters (Millipore, Saint Quentin-Fallavier, France) and careful rinsing of the filters with diluted quenching medium (50 mM TCA + 3 mM H3P0_4). The amount of radioactivity bound to the filter was estimated by liquid scintillation counting (Perkin Elmer TriCarb Counter). When starting from a calcium-deprived state (Fig. 4C,D), EGTA was added only one minute before starting phosphorylation to limit irreversible inactivation of the solubilized ATPase, although the presence of glycerol helps in protecting the enzyme from irreversible inactivation. For dephosphorylation kinetics, 1 mM “cold” Mg.ATP was added after a 30 s period of phosphorylation. For Ca^2+-dependency, we adjust the concentration of free calcium according to the Ca.EGTA constant as mentioned above, before triggering phosphorylation. […] Phosphorylations were done at 0 °C especially for inhibition by vanadate to prevent dissociation of vanadate and limit irreversible inactivation in absence of calcium.

[2] = target: T1, recombinant SERCA1a (recS1a); assay: Calcium binding at equilibrium by tryptophan fluorescence; parameters: species or system rabbit (expressed in S. cerevisiae); conditions: average of three independent experiments; for Ca1/2 (tryptophan fluorescence), recS1a + pSLN: at equilibrium, pH 7, 20 °C, DDM, 20% glycerol, p=0.200 vs recS1a alone
Method: (§2) Intrinsic fluorescence of SERCA1a was measured with a SPEX Fluorolog spectrofluorometer (Horiba/Jobin–Yvon, Longjumeau, France) as described before. Briefly, signals were monitored with excitation and emission wavelength set at 295 and 320 nm, with bandwidths of 2 and 10 nm, respectively. Changes in tryptophan fluorescence were recorded at 20 °C after dilution of protein samples to a final concentration of about 6–7.5 µg/mL into a medium containing 50 mM MOPS-Tris pH 7, 100 mM KCl, 5 mM MgCl2, 20% glycerol (v/v) and 10 mg/mL DDM. In presence of SLN, recS1a and SLN were first mixed together and incubate for 1 h on ice before measurement. In absence of SLN, recS1a is supplemented with 0.07 mg/mL C12E8 to compensate the detergent present with SLN. The Maxchelator program was used for estimating [Ca^2+]free[59] (program available at https://somapp.ucdmc.ucdavis.edu/pharmacology/bers/maxchelator/downloads.htm). The dissociation constant of the Ca.EGTA complex was taken to be 0.4 µM at pH7 and was assumed to be the same in the presence of glycerol.

[3] = target: T1, recombinant SERCA1a (recS1a); assay: Mg.ATP binding by tryptophan fluorescence; parameters: species or system rabbit (expressed in S. cerevisiae)
Method: as §2

[4] = target: T1, recombinant SERCA1a (recS1a); assay: Vanadate inhibition of phosphoenzyme formation, recS1a; type: biochemical, rabbit (expressed in S. cerevisiae); conditions: for K1/2 (K0.5) for vanadate inhibition, recS1a + pSLN: DDM-solubilized, preincubation with orthovanadate without calcium, phosphorylation 30 s at 0 °C, three independent experiments, p < 0.0001 vs recS1a alone
Method: as §1

[5] = target: T1, recombinant SERCA1a (recS1a); assay: Calcium dependence of phosphoenzyme level; type: biochemical, rabbit (expressed in S. cerevisiae)
Method: as §1

Row | EPmax, from calcium deprived state ([1]; SLN:SERCA1a 10:1) [nmoles EP/mg ATPase] | t1/2 of phosphorylation, from calcium deprived state ([1]; SLN:SERCA1a 10:1 mol:mol) [s] | rate of phosphorylation, from calcium deprived state [1] | Ca1/2 (tryptophan fluorescence), recS1a + pSLN [2] [µM] | Ca1/2 (tryptophan fluorescence), recS1a + pSLN ([2]; listed as Palm-SLN) | nH for calcium (tryptophan fluorescence), recS1a + pSLN [2] | fluorescence change on 0.3 µM Mg.ATP, recS1a + pSLN ([3]; 0.3 µM Mg.ATP, increase of fluorescence in absence of pSLN) | fluorescence change on 300 µM Mg.ATP, recS1a + pSLN ([3]; 300 µM Mg.ATP, decrease of fluorescence in absence of pSLN) | Mg-ATP1/2 (affinity for Mg.ATP), recS1a + pSLN ([3]; calcium-deprived (2 mM EGTA), pH 7, 20 °C, DDM, 20% glycerol, three independent experiments, p = 0.045) | nH for Mg.ATP, recS1a + pSLN ([3]; three independent experiments) | EPmax, from calcium bound state ([1]; SLN:SERCA1a 10:1, Fig. 4A, average of four replicates from two independent experiments, recS1a alone 3.37 ± 0.35) [nmoles EP/mg ATPase] | t1/2 of phosphorylation, from calcium bound state (Ca2.E1) ([1]; SLN:SERCA1a 10:1 mol:mol, 2 µM [γ32P]ATP, four replicates from two independent experiments, recS1a alone 5.7, p = 0.45) [s] | rate of phosphorylation, from calcium bound state ([1]; recS1a in absence or presence of pSLN, starting from Ca2.E1) | K1/2 (K0.5) for vanadate inhibition, recS1a + pSLN [4] [µM] | K1/2 (K0.5) for vanadate inhibition, recS1a + pSLN ([4]; listed as Palm-SLN) | EPmax (vanadate series) ([4]; recS1a + pSLN, recS1a alone 2.01 ± 0.05) | nH for calcium (phosphoenzyme level), recS1a + pSLN ([5]; five independent experiments) | Ca1/2 (phosphoenzyme level), recS1a + pSLN ([5]; phosphorylation 15 s, varying calcium, five independent experiments, 36 data points per fit, p = 0.29) | EPmax (calcium dependence) ([5]; recS1a + pSLN, Fig. 4E, recS1a alone 3.13 ± 0.11) [nmoles EP/mg ATPase] | Substance
1 | 3.15 ± 0.05 | 13.7 | significantly lower | – | – | – | – | – | – | – | – | – | – | – | – | – | – | – | – | SLN: chemically synthesized non-palmitoylated rabbit sarcolipin; in cited literature results sarcolipin in general (MERSTRELCLNFTVVLITVILIWLLVRSYQY; UniProt P42532 1-31, looked up)
2 | 3.10 ± 0.09 | 13.5 | significantly lower | 4.5 | 4.48 +/- 0.52 µM | 1.96+/-0.20 | no fluorescence intensity variation | increase of signal | 11 µM and 11.0 ± 1 µM | 0.95 ± 0.06 | 3.23 ± 0.37 | 5.1 | the same | 0.22 ± 0.01 | 0.22+/-0.01 µM | 2.07 ± 0.21 nmoles/mg of ATPase | 0.74 ± 0.03 | 0.58 ± 0.05 µM and 0.58 µM | 3.19 ± 0.11 | pSLN: chemically synthesized S-palmitoylated rabbit sarcolipin, 31-residue single-spanning membrane peptide, palmitoylated on Cys9 (MERSTRELC(Palmitoyl)LNFTVVLITVILIWLLVRSYQY; UniProt P42532 1-31, looked up)
